Experiments:
macaque TfR1 = target: T1, macaque TfR1 (rhesus macaque, UniProt I0FKY7 1-760); assay: qPCR of cell-bound vector genomes, CHO cells stably expressing TfR1, 4 C, 1 h
T1 construct: whole, on cells; also called macTfR1; rhesus macaque TFRC

marmoset TfR1 = target: T2, marmoset TfR1 (marmoset, UniProt U3FHF5 1-760); assay: as above
T2 construct: whole, on cells; also called marmoset TFRC; marTFRC

mouse TfR1 = target: T3, mouse TfR1 (mouse, UniProt Q62351 1-763); assay: as above
T3 construct: whole, on cells; also called mouse TFRC; mouse Tfrc

[1] = target: T4, human Transferrin Receptor (TFRC) (human, UniProt P02786 1-760); assay: binding of AAV to CHO or hCMEC cells expressing human TFRC, relative to AAV9
T4 construct: whole, on cells; also called hTFRC; huTfR1

[2] = target: T4, human Transferrin Receptor (TFRC); assay: legend of the 2-step in vivo transduction assay (human TFRC expressed in mouse brain endothelium)

T4 sequence (P02786 whole entry): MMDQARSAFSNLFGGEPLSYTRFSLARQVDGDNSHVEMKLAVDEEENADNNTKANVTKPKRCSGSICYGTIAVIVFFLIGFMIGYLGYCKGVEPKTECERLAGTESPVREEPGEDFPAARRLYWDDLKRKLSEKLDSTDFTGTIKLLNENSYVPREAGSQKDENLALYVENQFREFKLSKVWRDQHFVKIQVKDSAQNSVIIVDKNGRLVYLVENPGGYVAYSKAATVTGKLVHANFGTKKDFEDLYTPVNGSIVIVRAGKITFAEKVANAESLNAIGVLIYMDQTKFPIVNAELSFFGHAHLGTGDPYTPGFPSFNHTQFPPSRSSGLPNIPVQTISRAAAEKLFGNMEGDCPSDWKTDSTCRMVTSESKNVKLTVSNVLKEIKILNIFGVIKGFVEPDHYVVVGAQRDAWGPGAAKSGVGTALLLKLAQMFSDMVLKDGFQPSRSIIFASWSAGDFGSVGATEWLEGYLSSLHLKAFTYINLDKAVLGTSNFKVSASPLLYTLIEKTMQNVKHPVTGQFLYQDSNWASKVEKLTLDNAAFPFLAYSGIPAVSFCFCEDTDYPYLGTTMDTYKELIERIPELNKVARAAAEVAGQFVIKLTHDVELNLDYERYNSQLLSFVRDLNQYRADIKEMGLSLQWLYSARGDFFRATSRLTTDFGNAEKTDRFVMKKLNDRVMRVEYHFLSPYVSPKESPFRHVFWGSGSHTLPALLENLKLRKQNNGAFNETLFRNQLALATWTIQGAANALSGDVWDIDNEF
T3 sequence (Q62351 whole entry): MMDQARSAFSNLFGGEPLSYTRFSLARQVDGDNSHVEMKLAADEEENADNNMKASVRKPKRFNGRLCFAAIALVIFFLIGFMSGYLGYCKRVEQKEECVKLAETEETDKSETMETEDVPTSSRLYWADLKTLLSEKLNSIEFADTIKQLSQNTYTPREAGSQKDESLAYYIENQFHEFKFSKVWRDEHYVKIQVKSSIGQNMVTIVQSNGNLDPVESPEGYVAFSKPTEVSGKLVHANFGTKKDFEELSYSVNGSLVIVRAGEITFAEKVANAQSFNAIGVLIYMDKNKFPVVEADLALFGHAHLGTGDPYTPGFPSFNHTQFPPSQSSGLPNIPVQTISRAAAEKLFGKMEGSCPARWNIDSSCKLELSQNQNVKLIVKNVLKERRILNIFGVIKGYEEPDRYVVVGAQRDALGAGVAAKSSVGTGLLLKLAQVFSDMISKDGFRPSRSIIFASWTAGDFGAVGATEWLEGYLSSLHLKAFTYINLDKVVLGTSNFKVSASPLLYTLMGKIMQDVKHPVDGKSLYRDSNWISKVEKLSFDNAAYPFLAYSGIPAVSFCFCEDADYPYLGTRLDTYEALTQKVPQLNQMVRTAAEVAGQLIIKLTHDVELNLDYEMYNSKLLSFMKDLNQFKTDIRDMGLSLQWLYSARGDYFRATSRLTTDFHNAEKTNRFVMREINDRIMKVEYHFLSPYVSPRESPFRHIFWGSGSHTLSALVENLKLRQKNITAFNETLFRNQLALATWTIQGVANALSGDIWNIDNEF

B1: AAV-BI98 (other)
chain: MAADGYLPDWLEDNLSEGIREWWALKPGAPQPKANQQHQDNARGLVLPGYKYLGPGNGLDKGEPVNAADAAALEHDKAYDQQLKAGDNPYLKYNHADAEFQERLKEDTSFGGNLGRAVFQAKKRLLEPLGLVEEAAKTAPGKKRPVEQSPQEPDSSAGIGKSGAQPAKKRLNFGQTGDTESVPDPQPIGEPPAAPSGVGSLTMASGGGAPVADNNEGADGVGSSSGNWHCDSQWLGDRVITTSTRTWALPTYNNHLYKQISNSTSGGSSNDNAYFGYSTPWGYFDFNRFHCHFSPRDWQRLINNNWGFRPKRLNFKLFNIQVKEVTDNNGVKTIANNLTSTVQVFTDSDYQLPYVLGSAHEGCLPPFPADVFMIPQYGYLTLNDGSQAVGRSSFYCLEYFPSQMLRTGNNFQFSYEFENVPFHSSYAHSQSLDRLMNPLIDQYLYYLSRTINGSGQNQQTLKFSVAGPSNMAVQGRNYIPGPSYRQQRVSTTVTQNNNSEFAWPGASSWALNGRNSLMNPGPAMASHKEGEDRFFPLSGSLIFGKQGTGRDNVDADKVMITNEEEIKTTNPVATESYGQVATNHQSAQYSRLNMNAQAQTGWVQNQGILPGMVWQDRDVYLQGPIWAKIPHTDGNFHPSPLMGGFGMKHPPPQILIKNTPVPADPPTAFNKDKLNSFITQYSTGQVSVEIEWELQKENSKRWNPEIQYTSNYYKSNNVEFAVNTEGVYSEPRPIGTRYLTRNL
notes: Engineered AAV capsid tested as assembled virus particles; entry is full VP1; also called AAV-B198
binding result (macaque TfR1): no binding (tested: 3,000 vg/cell) | binding result (marmoset TfR1): no binding (tested: 3,000 vg/cell) | binding result (mouse TfR1): no binding (tested: 3,000 vg/cell) | binding result [1]: binds

B2: AAV-BI19 (other)
chain: MAADGYLPDWLEDNLSEGIREWWALKPGAPQPKANQQHQDNARGLVLPGYKYLGPGNGLDKGEPVNAADAAALEHDKAYDQQLKAGDNPYLKYNHADAEFQERLKEDTSFGGNLGRAVFQAKKRLLEPLGLVEEAAKTAPGKKRPVEQSPQEPDSSAGIGKSGAQPAKKRLNFGQTGDTESVPDPQPIGEPPAAPSGVGSLTMASGGGAPVADNNEGADGVGSSSGNWHCDSQWLGDRVITTSTRTWALPTYNNHLYKQISNSTSGGSSNDNAYFGYSTPWGYFDFNRFHCHFSPRDWQRLINNNWGFRPKRLNFKLFNIQVKEVTDNNGVKTIANNLTSTVQVFTDSDYQLPYVLGSAHEGCLPPFPADVFMIPQYGYLTLNDGSQAVGRSSFYCLEYFPSQMLRTGNNFQFSYEFENVPFHSSYAHSQSLDRLMNPLIDQYLYYLSRTINGSGQNQQTLKFSVAGPSNMAVQGRNYIPGPSYRQQRVSTTVTQNNNSEFAWPGASSWALNGRNSLMNPGPAMASHKEGEDRFFPLSGSLIFGKQGTGRDNVDADKVMITNEEEIKTTNPVATESYGQVATNHQSAQYSRIGPNAQAQTGWVQNQGILPGMVWQDRDVYLQGPIWAKIPHTDGNFHPSPLMGGFGMKHPPPQILIKNTPVPADPPTAFNKDKLNSFITQYSTGQVSVEIEWELQKENSKRWNPEIQYTSNYYKSNNVEFAVNTEGVYSEPRPIGTRYLTRNL
notes: Engineered AAV capsid, tested as assembled genome-packaging virus particles; VP2 and VP3 come from the same cap gene
binding result [2]: binds | binding result (macaque TfR1): no binding (tested: 3,000 vg/cell) | binding result (marmoset TfR1): no binding (tested: 3,000 vg/cell) | binding result (mouse TfR1): no binding (tested: 3,000 vg/cell)

B3: AAV-BI100 (other)
chain: MAADGYLPDWLEDNLSEGIREWWALKPGAPQPKANQQHQDNARGLVLPGYKYLGPGNGLDKGEPVNAADAAALEHDKAYDQQLKAGDNPYLKYNHADAEFQERLKEDTSFGGNLGRAVFQAKKRLLEPLGLVEEAAKTAPGKKRPVEQSPQEPDSSAGIGKSGAQPAKKRLNFGQTGDTESVPDPQPIGEPPAAPSGVGSLTMASGGGAPVADNNEGADGVGSSSGNWHCDSQWLGDRVITTSTRTWALPTYNNHLYKQISNSTSGGSSNDNAYFGYSTPWGYFDFNRFHCHFSPRDWQRLINNNWGFRPKRLNFKLFNIQVKEVTDNNGVKTIANNLTSTVQVFTDSDYQLPYVLGSAHEGCLPPFPADVFMIPQYGYLTLNDGSQAVGRSSFYCLEYFPSQMLRTGNNFQFSYEFENVPFHSSYAHSQSLDRLMNPLIDQYLYYLSRTINGSGQNQQTLKFSVAGPSNMAVQGRNYIPGPSYRQQRVSTTVTQNNNSEFAWPGASSWALNGRNSLMNPGPAMASHKEGEDRFFPLSGSLIFGKQGTGRDNVDADKVMITNEEEIKTTNPVATESYGQVATNHQSAQVHRLQDKAQAQTGWVQNQGILPGMVWQDRDVYLQGPIWAKIPHTDGNFHPSPLMGGFGMKHPPPQILIKNTPVPADPPTAFNKDKLNSFITQYSTGQVSVEIEWELQKENSKRWNPEIQYTSNYYKSNNVEFAVNTEGVYSEPRPIGTRYLTRNL
notes: Engineered AAV capsid tested as assembled virus particles; entry is full VP1
binding result [1]: binds

B4: AAV-BI102 (other)
chain: MAADGYLPDWLEDNLSEGIREWWALKPGAPQPKANQQHQDNARGLVLPGYKYLGPGNGLDKGEPVNAADAAALEHDKAYDQQLKAGDNPYLKYNHADAEFQERLKEDTSFGGNLGRAVFQAKKRLLEPLGLVEEAAKTAPGKKRPVEQSPQEPDSSAGIGKSGAQPAKKRLNFGQTGDTESVPDPQPIGEPPAAPSGVGSLTMASGGGAPVADNNEGADGVGSSSGNWHCDSQWLGDRVITTSTRTWALPTYNNHLYKQISNSTSGGSSNDNAYFGYSTPWGYFDFNRFHCHFSPRDWQRLINNNWGFRPKRLNFKLFNIQVKEVTDNNGVKTIANNLTSTVQVFTDSDYQLPYVLGSAHEGCLPPFPADVFMIPQYGYLTLNDGSQAVGRSSFYCLEYFPSQMLRTGNNFQFSYEFENVPFHSSYAHSQSLDRLMNPLIDQYLYYLSRTINGSGQNQQTLKFSVAGPSNMAVQGRNYIPGPSYRQQRVSTTVTQNNNSEFAWPGASSWALNGRNSLMNPGPAMASHKEGEDRFFPLSGSLIFGKQGTGRDNVDADKVMITNEEEIKTTNPVATESYGQVATNHQSAQLHALSHNAQAQTGWVQNQGILPGMVWQDRDVYLQGPIWAKIPHTDGNFHPSPLMGGFGMKHPPPQILIKNTPVPADPPTAFNKDKLNSFITQYSTGQVSVEIEWELQKENSKRWNPEIQYTSNYYKSNNVEFAVNTEGVYSEPRPIGTRYLTRNL
notes: as for B3
binding result [1]: binds

B5: AAV-BI99 (other)
chain: MAADGYLPDWLEDNLSEGIREWWALKPGAPQPKANQQHQDNARGLVLPGYKYLGPGNGLDKGEPVNAADAAALEHDKAYDQQLKAGDNPYLKYNHADAEFQERLKEDTSFGGNLGRAVFQAKKRLLEPLGLVEEAAKTAPGKKRPVEQSPQEPDSSAGIGKSGAQPAKKRLNFGQTGDTESVPDPQPIGEPPAAPSGVGSLTMASGGGAPVADNNEGADGVGSSSGNWHCDSQWLGDRVITTSTRTWALPTYNNHLYKQISNSTSGGSSNDNAYFGYSTPWGYFDFNRFHCHFSPRDWQRLINNNWGFRPKRLNFKLFNIQVKEVTDNNGVKTIANNLTSTVQVFTDSDYQLPYVLGSAHEGCLPPFPADVFMIPQYGYLTLNDGSQAVGRSSFYCLEYFPSQMLRTGNNFQFSYEFENVPFHSSYAHSQSLDRLMNPLIDQYLYYLSRTINGSGQNQQTLKFSVAGPSNMAVQGRNYIPGPSYRQQRVSTTVTQNNNSEFAWPGASSWALNGRNSLMNPGPAMASHKEGEDRFFPLSGSLIFGKQGTGRDNVDADKVMITNEEEIKTTNPVATESYGQVATNHQSAQYSRLNKDAQAQTGWVQNQGILPGMVWQDRDVYLQGPIWAKIPHTDGNFHPSPLMGGFGMKHPPPQILIKNTPVPADPPTAFNKDKLNSFITQYSTGQVSVEIEWELQKENSKRWNPEIQYTSNYYKSNNVEFAVNTEGVYSEPRPIGTRYLTRNL
notes: as for B3
binding result (macaque TfR1): no binding (tested: 3,000 vg/cell) | binding result (marmoset TfR1): no binding (tested: 3,000 vg/cell) | binding result (mouse TfR1): no binding (tested: 3,000 vg/cell) | binding result [1]: binds

B6: AAV-BI101 (other)
chain: MAADGYLPDWLEDNLSEGIREWWALKPGAPQPKANQQHQDNARGLVLPGYKYLGPGNGLDKGEPVNAADAAALEHDKAYDQQLKAGDNPYLKYNHADAEFQERLKEDTSFGGNLGRAVFQAKKRLLEPLGLVEEAAKTAPGKKRPVEQSPQEPDSSAGIGKSGAQPAKKRLNFGQTGDTESVPDPQPIGEPPAAPSGVGSLTMASGGGAPVADNNEGADGVGSSSGNWHCDSQWLGDRVITTSTRTWALPTYNNHLYKQISNSTSGGSSNDNAYFGYSTPWGYFDFNRFHCHFSPRDWQRLINNNWGFRPKRLNFKLFNIQVKEVTDNNGVKTIANNLTSTVQVFTDSDYQLPYVLGSAHEGCLPPFPADVFMIPQYGYLTLNDGSQAVGRSSFYCLEYFPSQMLRTGNNFQFSYEFENVPFHSSYAHSQSLDRLMNPLIDQYLYYLSRTINGSGQNQQTLKFSVAGPSNMAVQGRNYIPGPSYRQQRVSTTVTQNNNSEFAWPGASSWALNGRNSLMNPGPAMASHKEGEDRFFPLSGSLIFGKQGTGRDNVDADKVMITNEEEIKTTNPVATESYGQVATNHQSAQYHRLSNNAQAQTGWVQNQGILPGMVWQDRDVYLQGPIWAKIPHTDGNFHPSPLMGGFGMKHPPPQILIKNTPVPADPPTAFNKDKLNSFITQYSTGQVSVEIEWELQKENSKRWNPEIQYTSNYYKSNNVEFAVNTEGVYSEPRPIGTRYLTRNL
notes: as for B3
binding result (macaque TfR1): no binding (tested: 3,000 vg/cell) | binding result (marmoset TfR1): no binding (tested: 3,000 vg/cell) | binding result (mouse TfR1): no binding (tested: 3,000 vg/cell) | binding result [1]: binds
